Assay results from patent publication EP4471049A1 (Zealand Pharma A/S, priority 2023, dated 2024).
*1 amine or outer side, *2 acyl side, *3 side chain or, on linkers, in order; H or OH if unused. Bridges are numbered along the chain shown (N, C = ends). [ ]: non-standard residue; d: D form. The star is where a group is joined. 4‑Aminomethyl‑phenylacetyl = 4-aminomethyl-phenylacetyl unit, its amine closes the lactam, O=C(Cc1ccc(CN[*:1])cc1)[*:2]; αMeAla(3-pyridyl) = C[C@](N)(Cc1cccnc1)C(=O)O; NH(4-(3-pyridyl)butyl) = c1cncc(CCCCN*)c1; 2Nal = N[C@@H](Cc1ccc2ccccc2c1)C(=O)O; AEF = NCCOc1ccc(C[C@H](N)C(=O)O)cc1; NMe3Pal = CN[C@@H](Cc1cccnc1)C(=O)O; 3Pal = N[C@@H](Cc1cccnc1)C(=O)O; d3Pal = N[C@H](Cc1cccnc1)C(=O)O; αMeL = CC(C)C[C@](C)(N)C(=O)O; β3hL = CC(C)C[C@H](N)CC(=O)O; Dab = NCC[C@H](N)C(=O)O; Sar = CNCC(=O)O

T1: Nluc-IL23R fusion protein (human, UniProt Q5VWK5 22-629)
T1 construct: range 22-629; expressed with a secretion signal in HEK293 cells; used as crude membrane preparation; also called hIL-23R; human IL-23R; not shown: Nanoluc protein from the expression plasmid N1371 (Promega), N-terminal of IL-23R
T1 sequence (looked up): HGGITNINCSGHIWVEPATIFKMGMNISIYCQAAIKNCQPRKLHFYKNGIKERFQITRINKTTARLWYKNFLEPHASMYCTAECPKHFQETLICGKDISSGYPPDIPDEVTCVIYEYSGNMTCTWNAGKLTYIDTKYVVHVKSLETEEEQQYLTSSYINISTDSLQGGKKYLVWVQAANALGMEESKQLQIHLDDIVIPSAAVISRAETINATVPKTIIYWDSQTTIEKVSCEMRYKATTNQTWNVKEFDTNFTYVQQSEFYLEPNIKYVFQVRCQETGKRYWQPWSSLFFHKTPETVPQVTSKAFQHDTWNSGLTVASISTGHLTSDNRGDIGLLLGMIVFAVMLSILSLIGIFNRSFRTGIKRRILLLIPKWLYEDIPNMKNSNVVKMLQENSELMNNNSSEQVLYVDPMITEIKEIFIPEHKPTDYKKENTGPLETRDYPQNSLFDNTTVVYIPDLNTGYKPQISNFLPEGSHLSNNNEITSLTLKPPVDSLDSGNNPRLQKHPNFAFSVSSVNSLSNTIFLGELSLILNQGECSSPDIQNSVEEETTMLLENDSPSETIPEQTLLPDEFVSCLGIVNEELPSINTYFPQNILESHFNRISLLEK

T2: human IL-23R endogenously expressed on DB cells (human, UniProt Q5VWK5 24-629)
T2 sequence (looked up): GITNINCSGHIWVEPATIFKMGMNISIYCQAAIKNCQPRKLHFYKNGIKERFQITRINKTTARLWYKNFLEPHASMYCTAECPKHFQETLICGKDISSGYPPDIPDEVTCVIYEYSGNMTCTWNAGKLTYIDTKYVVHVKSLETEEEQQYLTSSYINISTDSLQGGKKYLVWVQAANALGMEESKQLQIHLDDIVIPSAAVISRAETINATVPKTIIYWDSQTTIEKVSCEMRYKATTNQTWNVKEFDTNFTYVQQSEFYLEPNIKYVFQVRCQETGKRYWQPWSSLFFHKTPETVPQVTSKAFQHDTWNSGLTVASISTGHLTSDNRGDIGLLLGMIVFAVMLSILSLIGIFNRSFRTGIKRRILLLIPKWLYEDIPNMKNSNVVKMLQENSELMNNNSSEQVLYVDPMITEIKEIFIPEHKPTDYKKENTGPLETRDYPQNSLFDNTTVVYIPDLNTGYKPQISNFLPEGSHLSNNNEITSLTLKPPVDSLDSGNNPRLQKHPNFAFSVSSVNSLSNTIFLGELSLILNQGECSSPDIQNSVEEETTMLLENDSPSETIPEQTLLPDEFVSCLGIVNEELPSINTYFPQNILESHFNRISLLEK

B1: Compound 10 (peptide)
peptide: [4‑Aminomethyl‑phenylacetyl]SEWQ[Dab][AEF][2Nal][αMeL]E[Dab][3Pal][dH]-NH2
modifications: lactam N-10, 3-6
SMILES: CC(C)C[C@]1(C)NC(=O)[C@H](Cc2ccc3ccccc3c2)NC(=O)[C@H](Cc2ccc(OCCN)cc2)NC(=O)[C@@H]2CCNC(=O)CC[C@H](NC(=O)[C@H](CO)NC(=O)Cc3ccc(cc3)CNC(=O)CC[C@@H](C(=O)N[C@@H](CCN)C(=O)N[C@@H](Cc3cccnc3)C(=O)N[C@H](Cc3c[nH]cn3)C(N)=O)NC1=O)C(=O)N[C@@H](Cc1c[nH]c3ccccc13)C(=O)N[C@@H](CCC(N)=O)C(=O)N2
B2: Compound 9 (peptide)
peptide: [4‑Aminomethyl‑phenylacetyl]SEWQ[Dab][AEF][2Nal][αMeL]E[Dab][3Pal][Sar]-NH2
modifications: lactam N-10, 3-6
SMILES: CC(C)C[C@]1(C)NC(=O)[C@H](Cc2ccc3ccccc3c2)NC(=O)[C@H](Cc2ccc(OCCN)cc2)NC(=O)[C@@H]2CCNC(=O)CC[C@H](NC(=O)[C@H](CO)NC(=O)Cc3ccc(cc3)CNC(=O)CC[C@@H](C(=O)N[C@@H](CCN)C(=O)N[C@@H](Cc3cccnc3)C(=O)N(C)CC(N)=O)NC1=O)C(=O)N[C@@H](Cc1c[nH]c3ccccc13)C(=O)N[C@@H](CCC(N)=O)C(=O)N2
B3: Compound 11 (peptide)
peptide: [4‑Aminomethyl‑phenylacetyl]SEWQ[Dab][AEF][2Nal][αMeL]E[Dab][3Pal][β3hL]-NH2
modifications: lactam N-10, 3-6
SMILES: CC(C)C[C@@H](CC(N)=O)NC(=O)[C@H](Cc1cccnc1)NC(=O)[C@H](CCN)NC(=O)[C@@H]1CCC(=O)NCc2ccc(cc2)CC(=O)N[C@@H](CO)C(=O)N[C@H]2CCC(=O)NCC[C@H](NC(=O)[C@H](CCC(N)=O)NC(=O)[C@H](Cc3c[nH]c4ccccc34)NC2=O)C(=O)N[C@@H](Cc2ccc(OCCN)cc2)C(=O)N[C@@H](Cc2ccc3ccccc3c2)C(=O)N[C@@](C)(CC(C)C)C(=O)N1
B4: Compound C (peptide)
peptide: XQTWQCYWXENG
modifications: [Ac]-[Abu](16i)QTWQC(16i)[Y(2-aminoethoxy)]W[2-Me-Lys]ENG-[NH2]; (16i) [2,7] thioether bridge (cystathionine); N-terminal acetyl, C-terminal amide
notes: Y = Y(2-aminoethoxy)
B5: Ref 80 (peptide)
peptide: [4‑Aminomethyl‑phenylacetyl]SCWQC[AEF][2Nal][αMeL]E[dR]-NH2
modifications: lactam N-10; bridge 3-6; not fully specified (bridges); printed as [4-Aminomethyl-phenylacetyl](1c)*SC(2a)WQC(2a)[Y(2-aminoethoxy)][2-Nal][2-Me-Leu]E(1c)[{d}R]-[NH2]
notes: Y = Y(2-aminoethoxy), R = D-Arg
B6: Compound 13 (peptide)
peptide: [4‑Aminomethyl‑phenylacetyl]SEWQ[Dab][AEF][2Nal][αMeL]E[Dab][dH]-NH2
modifications: lactam N-10, 3-6
SMILES: CC(C)C[C@]1(C)NC(=O)[C@H](Cc2ccc3ccccc3c2)NC(=O)[C@H](Cc2ccc(OCCN)cc2)NC(=O)[C@@H]2CCNC(=O)CC[C@H](NC(=O)[C@H](CO)NC(=O)Cc3ccc(cc3)CNC(=O)CC[C@@H](C(=O)N[C@@H](CCN)C(=O)N[C@H](Cc3c[nH]cn3)C(N)=O)NC1=O)C(=O)N[C@@H](Cc1c[nH]c3ccccc13)C(=O)N[C@@H](CCC(N)=O)C(=O)N2
B7: I1 (isomer 3) (peptide)
peptide: H-GCTCWECWWLCS-NH2
modifications: bridge 4-7, 2-11; not fully specified (bridges)
notes: compound from Heinis et al., 2020, synthesised for comparison
B8: Compound 3 (peptide)
peptide: [4‑Aminomethyl‑phenylacetyl]SEWQ[Dab][AEF][2Nal][αMeL]E[Dab][αMeAla(3-pyridyl)]-NH2
modifications: lactam N-10, 3-6
SMILES: CC(C)C[C@]1(C)NC(=O)[C@H](Cc2ccc3ccccc3c2)NC(=O)[C@H](Cc2ccc(OCCN)cc2)NC(=O)[C@@H]2CCNC(=O)CC[C@H](NC(=O)[C@H](CO)NC(=O)Cc3ccc(cc3)CNC(=O)CC[C@@H](C(=O)N[C@@H](CCN)C(=O)N[C@@](C)(Cc3cccnc3)C(N)=O)NC1=O)C(=O)N[C@@H](Cc1c[nH]c3ccccc13)C(=O)N[C@@H](CCC(N)=O)C(=O)N2

molecular target: T1, Nluc-IL23R fusion protein; test: BRET competition vs TAMRA-labelled peptide, Nluc-IL23R membranes; for % displacement (hIL-23R binding): test concentration or dose not given here

Binder	% displacement (hIL-23R binding) [%]	IC50 [nM]
B1	91	–
B2	100	–
B3	103	0.024

molecular target: T2, human IL-23R endogenously expressed on …; test: cell-based or functional assay

Binder	hIL-23 (pSTAT3) antagonist % inhibition [%]	hIL-23 (pSTAT3) antagonist IC50 [nM]
B4	99	13
[4‑Aminomethyl‑phenylacetyl]SEWQ[Dab][AEF][2Nal][αMeL]E[Dab][3Pal]-NHMe (lactam N-10, 3-6) [Compound 8]	101	0.053
B1	99	0.038
[4‑Aminomethyl‑phenylacetyl]SEWQ[Dab][AEF][2Nal][αMeL]E[Dab][NMe3Pal]-NH2 (lactam N-10, 3-6) [Compound 4]	100	6.5
B5	97	11
B6	99	6.8
B7	83	–
[4‑Aminomethyl‑phenylacetyl]SEWQ[Dab][AEF][2Nal][αMeL]E[Dab]-{NH(4-(3-pyridyl)butyl)} (lactam N-10, 3-6) [Compound 6]	99	3.2
B2	97	0.025
B3	98	0.68
[4‑Aminomethyl‑phenylacetyl]SEWQ[Dab][AEF][2Nal][αMeL]E[Dab][d3Pal]-NH2 (lactam N-10, 3-6) [Compound 5]	95	2.1
B8	98	1.7

molecular target: T2, human IL-23R endogenously expressed on …; test: cell-based or functional assay; remark: another data set of the same source

Binder	IC50 (pSTAT3) [nM]
B6	6.8
[4‑Aminomethyl‑phenylacetyl]SEWQ[Dab][AEF][2Nal][αMeL]E[Dab][d3Pal]-NH2 (lactam N-10, 3-6) [Compound 5]	2.1

molecular target: T1, Nluc-IL23R fusion protein; test: BRET competition vs TAMRA-labelled peptide, Nluc-IL23R membranes; remark: another data set of the same source; for % displacement (hIL-23R binding): test concentration or dose not given here

Binder	% displacement (hIL-23R binding) [%]	IC50 [nM]
B4	102	2.6
B5	98	0.18
B7	105	130

molecular target: T1, Nluc-IL23R fusion protein; test: as above; remark: another data set of the same source

Binder	IC50 [nM]
B4	2.6
B5	0.18
B7	130

molecular target: T2, human IL-23R endogenously expressed on …; test: cell-based or functional assay; remark: another data set of the same source

Binder	IC50 (pSTAT3) [nM]
[4‑Aminomethyl‑phenylacetyl]SEWQ[Dab][AEF][2Nal][αMeL]E[Dab]-{NH(4-(3-pyridyl)butyl)} (lactam N-10, 3-6) [Compound 6]	3.2

molecular target: T2, human IL-23R endogenously expressed on …; test: cell-based or functional assay; remark: another data set of the same source

Binder	IC50 (pSTAT3) [nM]
[4‑Aminomethyl‑phenylacetyl]SEWQ[Dab][AEF][2Nal][αMeL]E[Dab][3Pal]-NHMe (lactam N-10, 3-6) [Compound 8]	0.053
[4‑Aminomethyl‑phenylacetyl]SEWQ[Dab][AEF][2Nal][αMeL]E[Dab][NMe3Pal]-NH2 (lactam N-10, 3-6) [Compound 4]	6.5
B8	1.7

molecular target: T2, human IL-23R endogenously expressed on …; test: cell-based or functional assay; remark: another data set of the same source

Binder	IC50 (pSTAT3) [nM]
B1	0.038
B2	0.025
B3	0.68

molecular target: T1, Nluc-IL23R fusion protein; test: BRET competition vs TAMRA-labelled peptide, Nluc-IL23R membranes; remark: another data set of the same source; for % displacement (hIL-23R binding): test concentration or dose not given here

Binder	% displacement (hIL-23R binding) [%]	IC50 [nM]
[4‑Aminomethyl‑phenylacetyl]SEWQ[Dab][AEF][2Nal][αMeL]E[Dab][3Pal]-NHMe (lactam N-10, 3-6) [Compound 8]	103	–
[4‑Aminomethyl‑phenylacetyl]SEWQ[Dab][AEF][2Nal][αMeL]E[Dab][NMe3Pal]-NH2 (lactam N-10, 3-6) [Compound 4]	111	0.17
B6	100	–
[4‑Aminomethyl‑phenylacetyl]SEWQ[Dab][AEF][2Nal][αMeL]E[Dab]-{NH(4-(3-pyridyl)butyl)} (lactam N-10, 3-6) [Compound 6]	103	0.037
[4‑Aminomethyl‑phenylacetyl]SEWQ[Dab][AEF][2Nal][αMeL]E[Dab][d3Pal]-NH2 (lactam N-10, 3-6) [Compound 5]	99	–
B8	99	–

molecular target: T1, Nluc-IL23R fusion protein; test: Ki from BRET competition (Cheng-Prusoff), Nluc-IL23R membranes

Binder	Ki [nM]
B4	2.11
B5	0.15
B7	104
